Experimental data taken from the supplement of paper PMC10065799, “High-throughput profiling of sequence recognition by tyrosine kinases and SH2 domains using bacterial peptide display” (eLife, 2023).

Columns and labels:
Fes = Fes (UniProt P07332); test: phosphorylation enrichment, bacterial display (enrichment ratio); higher = better substrate or ligand; peptides without Tyr show the background
FGFR1 = FGFR1 (UniProt P11362); test: as above
c-Abl (mouse) = test: as above
Hck = Hck (UniProt P08631); test: as above
Chain of Hck (P08631 whole entry, looked up): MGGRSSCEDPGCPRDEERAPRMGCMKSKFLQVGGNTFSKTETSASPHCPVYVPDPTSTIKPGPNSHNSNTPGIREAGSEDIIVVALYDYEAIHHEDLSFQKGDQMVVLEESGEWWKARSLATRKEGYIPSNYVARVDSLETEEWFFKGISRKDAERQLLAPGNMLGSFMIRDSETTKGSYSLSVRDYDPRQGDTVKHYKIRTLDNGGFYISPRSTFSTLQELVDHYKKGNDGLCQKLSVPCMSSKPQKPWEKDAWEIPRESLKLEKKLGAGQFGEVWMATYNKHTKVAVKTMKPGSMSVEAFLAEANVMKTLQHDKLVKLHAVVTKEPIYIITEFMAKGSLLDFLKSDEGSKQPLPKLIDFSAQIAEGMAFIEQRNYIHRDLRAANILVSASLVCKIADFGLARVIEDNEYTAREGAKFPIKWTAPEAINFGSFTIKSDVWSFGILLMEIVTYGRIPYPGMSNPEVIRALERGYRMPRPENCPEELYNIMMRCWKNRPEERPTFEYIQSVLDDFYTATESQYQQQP

Jak2 = Jak2 (UniProt O60674); test: as above
Fer (mouse) = test: as above
EPHB1 = EPHB1 (UniProt P54762); test: as above
Chain of EPHB1 (P54762 whole entry, looked up): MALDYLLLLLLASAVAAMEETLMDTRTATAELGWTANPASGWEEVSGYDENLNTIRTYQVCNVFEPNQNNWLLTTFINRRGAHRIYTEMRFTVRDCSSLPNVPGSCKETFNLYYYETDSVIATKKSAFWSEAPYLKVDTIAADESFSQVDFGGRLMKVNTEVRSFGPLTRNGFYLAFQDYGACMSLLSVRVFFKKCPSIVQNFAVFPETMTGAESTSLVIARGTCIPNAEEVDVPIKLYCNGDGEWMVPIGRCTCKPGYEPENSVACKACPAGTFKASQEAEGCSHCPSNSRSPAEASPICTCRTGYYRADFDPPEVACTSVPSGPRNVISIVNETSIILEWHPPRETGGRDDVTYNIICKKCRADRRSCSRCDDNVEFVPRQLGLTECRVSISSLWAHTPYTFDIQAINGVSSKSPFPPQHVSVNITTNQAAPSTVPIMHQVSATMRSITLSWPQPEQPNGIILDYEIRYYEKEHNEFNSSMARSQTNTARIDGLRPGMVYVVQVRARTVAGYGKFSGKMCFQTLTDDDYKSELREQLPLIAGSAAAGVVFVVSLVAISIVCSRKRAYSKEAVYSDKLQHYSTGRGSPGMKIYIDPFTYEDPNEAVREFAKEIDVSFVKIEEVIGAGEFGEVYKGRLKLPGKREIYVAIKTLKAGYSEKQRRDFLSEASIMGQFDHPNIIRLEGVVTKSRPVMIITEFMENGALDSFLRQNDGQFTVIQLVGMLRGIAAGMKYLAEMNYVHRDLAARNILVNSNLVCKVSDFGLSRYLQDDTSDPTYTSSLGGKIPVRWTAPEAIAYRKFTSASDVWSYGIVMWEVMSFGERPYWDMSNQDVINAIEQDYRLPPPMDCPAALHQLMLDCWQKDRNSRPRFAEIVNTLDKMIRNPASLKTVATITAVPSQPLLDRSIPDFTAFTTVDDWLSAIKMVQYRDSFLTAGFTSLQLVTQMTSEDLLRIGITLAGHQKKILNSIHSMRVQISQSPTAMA

MERTK = MERTK (UniProt Q12866); test: as above
EPHB2 = EPHB2 (UniProt P29323); test: as above
Chain of EPHB2 (P29323 whole entry, looked up): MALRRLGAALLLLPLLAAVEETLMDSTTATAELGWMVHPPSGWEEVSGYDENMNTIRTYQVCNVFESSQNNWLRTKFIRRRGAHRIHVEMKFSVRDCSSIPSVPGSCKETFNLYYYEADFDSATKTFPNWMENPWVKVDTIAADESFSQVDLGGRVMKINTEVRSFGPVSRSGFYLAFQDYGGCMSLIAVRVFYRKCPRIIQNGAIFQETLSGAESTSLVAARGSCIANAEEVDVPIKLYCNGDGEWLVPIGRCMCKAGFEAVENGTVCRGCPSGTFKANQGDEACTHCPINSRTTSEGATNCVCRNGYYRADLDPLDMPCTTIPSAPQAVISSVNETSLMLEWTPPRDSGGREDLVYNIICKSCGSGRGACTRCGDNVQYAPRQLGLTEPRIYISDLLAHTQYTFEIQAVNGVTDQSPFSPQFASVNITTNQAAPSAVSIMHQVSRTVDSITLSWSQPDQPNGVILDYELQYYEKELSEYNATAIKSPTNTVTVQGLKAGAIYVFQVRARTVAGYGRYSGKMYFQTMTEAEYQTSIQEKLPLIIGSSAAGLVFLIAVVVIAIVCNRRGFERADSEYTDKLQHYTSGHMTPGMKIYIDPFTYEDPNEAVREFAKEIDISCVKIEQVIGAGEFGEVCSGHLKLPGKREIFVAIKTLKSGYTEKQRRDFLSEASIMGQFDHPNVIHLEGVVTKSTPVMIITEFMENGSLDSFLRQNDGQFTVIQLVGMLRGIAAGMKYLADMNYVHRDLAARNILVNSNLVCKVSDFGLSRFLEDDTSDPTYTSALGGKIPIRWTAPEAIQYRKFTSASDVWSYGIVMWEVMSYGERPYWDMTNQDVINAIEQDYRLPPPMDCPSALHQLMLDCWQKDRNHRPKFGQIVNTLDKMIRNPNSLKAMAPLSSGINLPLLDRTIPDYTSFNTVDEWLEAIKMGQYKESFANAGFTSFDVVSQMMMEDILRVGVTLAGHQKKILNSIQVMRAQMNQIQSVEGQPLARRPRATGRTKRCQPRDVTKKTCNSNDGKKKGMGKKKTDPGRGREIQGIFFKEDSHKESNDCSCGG

FGFR3 = FGFR3 (UniProt P22607); test: as above
AncSZ = test: as above
Fyn = Fyn (UniProt P06241); test: as above
Chain of Fyn (P06241 whole entry, looked up): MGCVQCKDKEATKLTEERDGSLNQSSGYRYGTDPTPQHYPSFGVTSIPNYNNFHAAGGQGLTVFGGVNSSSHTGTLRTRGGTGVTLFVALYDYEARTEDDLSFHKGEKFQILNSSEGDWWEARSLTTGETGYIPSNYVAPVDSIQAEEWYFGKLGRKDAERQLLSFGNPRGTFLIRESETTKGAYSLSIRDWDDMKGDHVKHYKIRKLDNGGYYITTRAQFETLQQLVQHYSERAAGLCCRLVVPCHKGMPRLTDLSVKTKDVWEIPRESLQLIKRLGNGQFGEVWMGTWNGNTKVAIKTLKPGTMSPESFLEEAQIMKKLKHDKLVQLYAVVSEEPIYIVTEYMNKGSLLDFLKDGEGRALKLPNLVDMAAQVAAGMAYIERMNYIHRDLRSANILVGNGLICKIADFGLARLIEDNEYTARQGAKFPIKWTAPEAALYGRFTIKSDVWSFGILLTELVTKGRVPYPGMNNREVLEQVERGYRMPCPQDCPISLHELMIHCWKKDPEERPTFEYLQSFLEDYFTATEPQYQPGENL

c-Src = test: as above
Grb2 SH2 = Grb2 SH2 (UniProt P62993); test: SH2 binding enrichment of the phosphorylated peptide, bacterial display (enrichment ratio); higher = better substrate or ligand; peptides without Tyr show the background
c-Src SH2 = test: as above
SHP2-C SH2 = test: as above
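Wherever SH2 binding enrichment of the phosphorylated peptide, bacterial display is given: peptide library displayed on the E. coli surface as eCPX fusions, selected cells deep-sequenced, score is each peptide's frequency after selection divided by its frequency in the input.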
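Wherever phosphorylation enrichment, bacterial display is given: 11-residue human phosphosite peptides and single-mutation variants displayed on the E. coli surface, counted by deep sequencing, each peptide's frequency after selection divided by its frequency in the unselected input library; frequency after pTyr selection over input frequency; kinase dosed for 20-30% of maximal phosphorylation in three min.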

Chain of Fes (P07332 whole entry, looked up): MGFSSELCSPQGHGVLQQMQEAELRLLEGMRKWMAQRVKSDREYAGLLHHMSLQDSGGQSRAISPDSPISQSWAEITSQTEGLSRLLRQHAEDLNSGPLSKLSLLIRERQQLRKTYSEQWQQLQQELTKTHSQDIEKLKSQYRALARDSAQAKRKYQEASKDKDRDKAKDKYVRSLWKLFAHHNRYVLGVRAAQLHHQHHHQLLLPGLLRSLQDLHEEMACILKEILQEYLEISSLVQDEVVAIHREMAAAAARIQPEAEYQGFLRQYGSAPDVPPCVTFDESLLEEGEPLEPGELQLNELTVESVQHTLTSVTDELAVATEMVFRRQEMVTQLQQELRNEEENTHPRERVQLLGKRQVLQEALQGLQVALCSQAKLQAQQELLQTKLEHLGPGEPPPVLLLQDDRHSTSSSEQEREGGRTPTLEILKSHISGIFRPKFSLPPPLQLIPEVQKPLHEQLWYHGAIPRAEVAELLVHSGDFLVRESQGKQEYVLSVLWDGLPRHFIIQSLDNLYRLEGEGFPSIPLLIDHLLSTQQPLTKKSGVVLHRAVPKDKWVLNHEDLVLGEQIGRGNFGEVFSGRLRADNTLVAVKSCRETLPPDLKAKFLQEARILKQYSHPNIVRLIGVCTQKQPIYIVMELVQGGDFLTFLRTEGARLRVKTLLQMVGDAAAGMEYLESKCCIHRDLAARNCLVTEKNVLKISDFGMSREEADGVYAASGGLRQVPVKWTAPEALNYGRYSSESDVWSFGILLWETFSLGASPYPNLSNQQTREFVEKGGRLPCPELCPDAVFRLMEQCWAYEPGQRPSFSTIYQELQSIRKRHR
Chain of FGFR1 (P11362 whole entry, looked up): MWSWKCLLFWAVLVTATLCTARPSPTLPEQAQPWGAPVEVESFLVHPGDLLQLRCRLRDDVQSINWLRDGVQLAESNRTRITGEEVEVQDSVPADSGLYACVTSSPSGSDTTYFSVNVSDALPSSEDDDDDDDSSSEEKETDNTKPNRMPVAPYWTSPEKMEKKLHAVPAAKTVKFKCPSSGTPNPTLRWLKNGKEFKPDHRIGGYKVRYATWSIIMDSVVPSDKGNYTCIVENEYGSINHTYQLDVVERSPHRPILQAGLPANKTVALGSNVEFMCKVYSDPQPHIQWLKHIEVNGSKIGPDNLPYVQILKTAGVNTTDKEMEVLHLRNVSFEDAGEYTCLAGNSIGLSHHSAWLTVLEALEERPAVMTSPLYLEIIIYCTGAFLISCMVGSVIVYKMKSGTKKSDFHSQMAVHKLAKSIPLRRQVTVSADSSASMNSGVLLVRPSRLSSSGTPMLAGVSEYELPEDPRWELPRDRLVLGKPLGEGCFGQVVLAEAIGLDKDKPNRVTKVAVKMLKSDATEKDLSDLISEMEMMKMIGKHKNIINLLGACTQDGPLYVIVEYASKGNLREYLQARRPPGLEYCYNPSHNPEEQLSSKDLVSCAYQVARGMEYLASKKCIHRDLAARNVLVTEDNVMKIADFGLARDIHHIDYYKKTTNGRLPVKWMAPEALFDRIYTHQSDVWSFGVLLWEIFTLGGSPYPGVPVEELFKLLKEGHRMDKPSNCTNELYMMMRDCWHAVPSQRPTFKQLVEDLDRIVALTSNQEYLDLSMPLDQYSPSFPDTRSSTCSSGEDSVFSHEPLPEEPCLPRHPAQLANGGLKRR

| SH2 binding enrichment (Grb2 SH2) | SH2 binding enrichment (c-Src SH2) | SH2 binding enrichment (SHP2-C SH2) | Sequence | phosphorylation enrichment (Fes) | phosphorylation enrichment (FGFR1) | phosphorylation enrichment (c-Abl (mouse)) | phosphorylation enrichment (Hck) | phosphorylation enrichment (Jak2) | phosphorylation enrichment (Fer (mouse)) | phosphorylation enrichment (EPHB1) | phosphorylation enrichment (MERTK) | phosphorylation enrichment (EPHB2) | phosphorylation enrichment (FGFR3) | phosphorylation enrichment (AncSZ) | phosphorylation enrichment (Fyn) | phosphorylation enrichment (c-Src) |
| --- | --- | --- | --- | --- | --- | --- | --- | --- | --- | --- | --- | --- | --- | --- | --- | --- |
| 0.691 | 0.426 | 0.648 | ISKKIYDPIHD [CTNNA3_Y614_T616P] | 0.694 | 0.436 | 0.445 | 0.731 | 0.516 | 0.446 | 0.48 | 0.455 | 0.475 | 0.529 | 0.57 | 0.636 | 0.541 |
| 0.695 | 0.449 | 0.653 | ISKKRYAGLLF [POLD1_Y809] | 0.507 | 0.57 | 0.52 | 0.519 | 0.658 | 0.307 | 0.415 | 0.466 | 0.471 | 0.467 | 0.539 | 0.448 | 0.462 |
| 1.07 | 0.686 | 0.85 | ITVCDYTNPCP [MYD88_Y276_T281P] | 0.829 | 0.443 | 0.551 | 0.354 | 0.689 | 0.396 | 0.561 | 0.333 | 0.482 | 0.551 | 1.49 | 0.428 | 0.943 |
| 0.787 | 0.473 | 0.604 | IVAREYFSKAD [CAMK2B_Y107_E110K_YF] | 0.693 | 0.434 | 0.448 | 0.427 | 0.542 | 0.368 | 0.421 | 0.358 | 0.437 | 0.402 | 0.627 | 0.469 | 0.342 |
| 0.922 | 0.575 | 0.907 | IVLEKYKLLPE [DHFR_Y157_D153V] | 1.07 | 0.596 | 0.676 | 0.458 | 0.809 | 0.45 | 0.53 | 0.386 | 0.638 | 0.752 | 0.843 | 0.453 | 0.346 |
| 0.823 | 3.15 | 0.815 | IVRSLYEDPED [VHL_Y185_L188P] | 1.02 | 0.502 | 0.619 | 0.544 | 0.878 | 0.738 | 0.748 | 0.424 | 0.698 | 0.707 | 1.12 | 0.455 | 0.586 |
| 0.962 | 5.64 | 0.766 | IVRSPYEDLED [VHL_Y185_L184P] | 1.16 | 0.571 | 0.748 | 0.528 | 1.35 | 0.562 | 0.58 | 0.533 | 0.682 | 0.704 | 1.31 | 0.506 | 0.531 |
| 0.616 | 0.553 | 0.649 | IYGASYVPFAA [RBM47_Y541] | 0.687 | 0.78 | 9.26 | 7.75 | 2.11 | 7.91 | 0.67 | 6.3 | 0.861 | 0.708 | 0.701 | 10 | 6.94 |
| 0.663 | 0.388 | 0.421 | KANEFYPVVLI [ADAMTS18_Y765_YF] | 1.15 | 2.76 | 0.68 | 0.412 | 1.06 | 0.82 | 0.448 | 0.451 | 0.48 | 1.97 | 1.03 | 0.482 | 0.506 |
| 0.838 | 0.454 | 0.899 | KASVDYIRKLQ [MITF_Y360] | 0.651 | 0.364 | 0.503 | 0.351 | 0.589 | 0.351 | 0.393 | 0.32 | 0.409 | 0.482 | 0.765 | 0.336 | 0.345 |
| 0.841 | 0.677 | 0.628 | KCLAVYQAGAR [APOE_Y180_R176C] | 0.742 | 0.47 | 0.734 | 0.812 | 0.744 | 0.487 | 0.597 | 0.478 | 0.646 | 0.557 | 0.737 | 0.646 | 2.45 |
| 0.794 | 0.532 | 0.649 | KDDEKYLDVSR [MTM1_Y260_I264S] | 1.09 | 0.473 | 0.824 | 0.457 | 0.973 | 0.442 | 0.521 | 0.423 | 0.556 | 0.655 | 0.951 | 0.456 | 0.433 |
| 0.685 | 2.5 | 0.746 | KDGNGYISVAE [CALM3_Y100_A103V] | 0.859 | 0.404 | 0.679 | 0.462 | 0.671 | 0.442 | 0.362 | 0.418 | 0.485 | 0.473 | 0.771 | 0.407 | 0.598 |
| 1.05 | 0.572 | 1.07 | KDQGIYEDFVE [MYL6_Y86_T85I_YF] | 1.49 | 0.688 | 0.932 | 1.07 | 1.3 | 1.82 | 0.831 | 0.614 | 0.949 | 0.901 | 1.45 | 2.6 | 2.84 |
| 0.858 | 0.408 | 0.616 | KEAQVYQAFKL [SUCLG2_Y343] | 1.05 | 0.516 | 15.3 | 9.46 | 0.801 | 9.27 | 1.07 | 2.84 | 0.566 | 0.603 | 1.1 | 11.3 | 7.32 |
| 0.743 | 0.392 | 0.345 | KGEDFYFVTCH [FHL1_Y149_C150Y_YF] | 1.57 | 0.62 | 0.9 | 0.503 | 1.49 | 0.588 | 0.709 | 0.491 | 0.788 | 0.946 | 1.26 | 0.451 | 0.468 |
| 0.837 | 7.21 | 0.993 | KGYCGYSYDDI [TMEM230_Y110_R108C] | 0.972 | 0.927 | 0.621 | 0.563 | 0.891 | 0.89 | 0.557 | 0.607 | 0.536 | 0.823 | 1.35 | 0.468 | 0.862 |

| SH2 binding enrichment (Grb2 SH2) | SH2 binding enrichment (c-Src SH2) | SH2 binding enrichment (SHP2-C SH2) | Sequence | phosphorylation enrichment (Fes) | phosphorylation enrichment (FGFR1) | phosphorylation enrichment (c-Abl (mouse)) | phosphorylation enrichment (Hck) | phosphorylation enrichment (Jak2) | phosphorylation enrichment (Fer (mouse)) | phosphorylation enrichment (EPHB1) | phosphorylation enrichment (MERTK) | phosphorylation enrichment (EPHB2) | phosphorylation enrichment (FGFR3) | phosphorylation enrichment (AncSZ) | phosphorylation enrichment (Fyn) | phosphorylation enrichment (c-Src) |
| --- | --- | --- | --- | --- | --- | --- | --- | --- | --- | --- | --- | --- | --- | --- | --- | --- |
| 1.02 | 1.23 | 0.822 | KILGTYYETGS [PAX2_Y72_R71T] | 0.936 | 1.85 | 0.592 | 0.818 | 0.653 | 0.466 | 0.66 | 1.01 | 0.641 | 1.61 | 0.875 | 0.769 | 1.29 |
| 0.97 | 0.823 | 0.727 | KIPGRYYETGS [PAX2_Y72_L69P] | 0.713 | 0.503 | 0.689 | 0.388 | 0.637 | 0.588 | 0.445 | 0.573 | 0.424 | 0.539 | 0.56 | 0.496 | 0.476 |
| 0.693 | 0.408 | 0.855 | KKARAYGPGIE [FLNA_Y287] | 0.446 | 0.323 | 0.468 | 0.405 | 0.418 | 0.38 | 0.328 | 0.399 | 0.335 | 0.343 | 0.576 | 0.357 | 0.392 |
| 0.932 | 0.875 | 0.83 | KKCTRYIDCDL [ASPA_Y64] | 0.852 | 0.623 | 0.757 | 0.41 | 0.782 | 0.423 | 0.428 | 0.421 | 0.434 | 0.575 | 0.798 | 0.389 | 0.429 |
| 1.01 | 0.541 | 0.561 | KLADIYQAELR [GFAP_Y116_V115I] | 0.839 | 0.419 | 0.674 | 0.799 | 0.813 | 0.502 | 0.59 | 0.709 | 0.595 | 0.582 | 0.789 | 0.795 | 1.62 |
| 0.812 | 0.558 | 0.748 | KLADMYGGGED [CDH1_Y876] | 0.79 | 0.561 | 0.455 | 0.463 | 0.732 | 0.461 | 0.424 | 0.436 | 0.43 | 0.509 | 0.766 | 0.484 | 0.42 |
| 0.787 | 0.418 | 0.508 | KLASTYREAAT [DEAF1_Y483_H479L] | 0.494 | 0.352 | 0.432 | 0.318 | 0.309 | 0.267 | 0.343 | 0.344 | 0.337 | 0.351 | 0.353 | 0.371 | 0.273 |
| 0.912 | 0.522 | 0.703 | KLIETYSSKNY [PLP1_Y50_F51S] | 0.838 | 0.584 | 0.591 | 0.536 | 0.653 | 0.44 | 0.684 | 0.539 | 0.759 | 0.619 | 0.649 | 0.429 | 0.543 |
| 0.884 | 0.528 | 0.71 | KLLPEYPGILS [DHFR2_Y163_V166I] | 0.832 | 0.467 | 0.627 | 0.419 | 0.739 | 0.466 | 0.488 | 0.376 | 0.458 | 0.524 | 0.772 | 0.436 | 0.431 |
| 0.897 | 0.631 | 0.734 | KLSCSYSHLSA [C4BPA_Y470_W473L] | 1.21 | 0.574 | 0.782 | 0.513 | 1.06 | 0.55 | 0.535 | 0.58 | 0.588 | 0.742 | 1.15 | 0.572 | 0.584 |
| 0.861 | 0.475 | 0.703 | KLSFSYGQALQ [ALDOB_Y302_R304Q] | 1.1 | 0.503 | 0.686 | 0.383 | 1.03 | 0.529 | 0.649 | 0.437 | 0.564 | 0.72 | 1 | 0.422 | 0.41 |
| 0.854 | 0.668 | 0.7 | KMKGDYFCFLA [YWHAG_Y130_R132C_YF] | 1.18 | 11.9 | 2.24 | 1 | 6.97 | 0.548 | 2.48 | 2.32 | 1.56 | 9.56 | 2.31 | 2.13 | 2.94 |
| 0.888 | 0.891 | 0.87 | KMKGDYYRSLA [YWHAG_Y130_Y133S] | 0.562 | 0.718 | 0.541 | 0.444 | 0.616 | 0.325 | 0.369 | 0.434 | 0.401 | 0.513 | 0.54 | 0.388 | 0.389 |
| 1.63 | 1.24 | 1.3 | KMKGEYFRFLA [YWHAG_Y130_D129E_YF] | 0.93 | 3.77 | 1.4 | 0.783 | 2.04 | 0.7 | 0.678 | 0.598 | 0.567 | 2.58 | 0.791 | 1.75 | 2.76 |
| 1.12 | 1.65 | 0.973 | KMMGRYEMFAR [UPB1_Y362_T359M_YF] | 0.599 | 0.363 | 0.464 | 0.402 | 0.453 | 0.298 | 0.327 | 0.393 | 0.393 | 0.445 | 0.538 | 0.368 | 0.34 |
| 0.783 | 0.526 | 0.523 | KNEVFYQCPDQ [FBXO3_Y223] | 1.55 | 1.26 | 7.94 | 1.69 | 0.941 | 6.47 | 1.04 | 3.49 | 2.03 | 1.49 | 3.2 | 1.03 | 0.985 |
